Target: T1, N-terminal FLAG-tagged human CD74 (human, UniProt P04233 1-296)
T1 sequence (looked up): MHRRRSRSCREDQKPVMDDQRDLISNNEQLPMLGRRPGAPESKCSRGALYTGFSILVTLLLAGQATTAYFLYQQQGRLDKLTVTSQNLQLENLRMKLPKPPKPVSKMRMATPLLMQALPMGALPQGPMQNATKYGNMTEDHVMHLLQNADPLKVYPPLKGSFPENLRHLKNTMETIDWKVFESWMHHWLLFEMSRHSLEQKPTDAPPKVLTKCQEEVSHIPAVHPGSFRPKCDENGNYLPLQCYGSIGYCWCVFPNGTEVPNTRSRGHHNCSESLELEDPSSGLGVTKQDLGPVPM
Assay: cell-based or functional assay

arrest of MonoMac6 cells on a monolayer of human aortic endothelial cells under flow, TIMP-1 at 200 and 400 ng/mL, optimal concentration 200 ng/mL: 2 fold
B1: recombinant human TIMP-1 (tissue inhibitor of metalloproteinases-1) (natural protein)
chain: not shown

— publication PMC10378328, “Tissue Inhibitor of Metalloproteinases-1 Interacts with CD74 to Promote AKT Signaling, Monocyte Recruitment Responses, and Vascular Smooth Muscle Cell Proliferation” (Cells, 2023)
